B1: Kinetochore protein ndc-80 (Caenorhabditis elegans), Q17635 (parent)
chain: MFGDRRKTGGLNLNGRASIAITPTKRFTDYTGSTSVRKTDARPSLSQPRVSLFNTKNSSVAPRDVKSLVSLNGSKIYNFLVEYESSDAPSEQLIMKPRGKNDFIACFELIYQHLSKDYEFPRHERIEEEVSQIFKGLGYPYPLKNSYYQPMGSSHGYPHLLDALSWLIDIIRINSAVSEDTQNILFGDFMEQGKAQEKTLNYAWMTSTFRDYTNDRKAAENPSSSYWDDTKHRLRKYFEQSNEFEDMTKTAASALEMLNYECDEIEADKGNEASLKEEISRIRDDIRKAKDYLEQNLHVKQHMEKELAMVKSEQEEKISENEKVQKMVDDLKNKIELQKQIHGLTGKEVRQMNLDNNKDKEVVLEIQSELDRLSKETWKLKDEDFFKEQKSKFIHLAEQIMKILSGLNIQMNLEPLRAPTNERDLKDYWETLNKIWVPEISRQLHQRKLELETEQSRFSNKAVTAEERIQIQSETLCEAKKNEAREERIRRNERDSWKDARKHIEQRYEQLLNEKEVLLKQMKLDGSLEKEIEDETARMSATGEEHIQKRSQLEAGIRQILDLMVVEIAEIENKKIGFHVQCAGIEKAVL
partner: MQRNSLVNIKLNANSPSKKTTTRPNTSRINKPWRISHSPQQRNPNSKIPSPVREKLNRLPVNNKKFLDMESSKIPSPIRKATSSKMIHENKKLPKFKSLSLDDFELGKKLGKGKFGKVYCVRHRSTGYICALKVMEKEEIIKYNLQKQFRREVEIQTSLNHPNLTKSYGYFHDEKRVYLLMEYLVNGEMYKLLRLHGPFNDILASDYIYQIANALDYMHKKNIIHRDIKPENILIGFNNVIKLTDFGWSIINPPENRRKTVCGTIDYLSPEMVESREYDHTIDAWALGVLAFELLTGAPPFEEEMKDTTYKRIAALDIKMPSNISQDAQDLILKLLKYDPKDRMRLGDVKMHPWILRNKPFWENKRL

Variants of: B1
Conditions: with aurk_yeast IPL1, P38991

Variant | effect of a mutation on the interaction
MFGDRRKAGGLNLNGRAAIAITPTKRFTDYTGSTSVRKTDARPALSQPRVALFNTKNSSVAPRDVKSLVSLNGSKIYNFLVEYESSDAPSEQLIMKPRGKNDFIACFELIYQHLSKDYEFPRHERIEEEVSQIFKGLGYPYPLKNSYYQPMGSSHGYPHLLDALSWLIDIIRINSAVSEDTQNILFGDFMEQGKAQEKTLNYAWMTSTFRDYTNDRKAAENPSSSYWDDTKHRLRKYFEQSNEFEDMTKTAASALEMLNYECDEIEADKGNEASLKEEISRIRDDIRKAKDYLEQNLHVKQHMEKELAMVKSEQEEKISENEKVQKMVDDLKNKIELQKQIHGLTGKEVRQMNLDNNKDKEVVLEIQSELDRLSKETWKLKDEDFFKEQKSKFIHLAEQIMKILSGLNIQMNLEPLRAPTNERDLKDYWETLNKIWVPEISRQLHQRKLELETEQSRFSNKAVTAEERIQIQSETLCEAKKNEAREERIRRNERDSWKDARKHIEQRYEQLLNEKEVLLKQMKLDGSLEKEIEDETARMSATGEEHIQKRSQLEAGIRQILDLMVVEIAEIENKKIGFHVQCAGIEKAVL [T8A;S18A;S44A;S51A] | disrupting interaction
